The source of these data is the NTF2 design screens of Basanta et al. (2020).

This series is described as follows: protease stability score; higher = more stable; yeast display proteolysis, trypsin and chymotrypsin.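 Also: relative to predicted unfolded state with 0 unfolded-like and 1 meaning tenfold more protease.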
In the case of “DEDDELEDKFEEILRYSLHTGDWEEWRKRVDPHVKLIINGREIIGMERAAKFFIDLERKLGVDVKHHEIRHEDKQGDKLHLETRVELRQGDKVIILHMHLHLEKINGQWIIREVRFD”, the protease stability score was found to be 1.47. In the case of “DEDDELKKTAVHDFTRDIATGDEESLHKLVDPHVRTTFDGQDLIGREHMWEHIHRLLRRYKNIRSEHIHIREIHVVDGVVESHTHIHMRIGEFKFIFNVHVFILKVDGVWFVHEAHYV”, the protease stability score stood at 0.886. As for “DEDDELMKRFVDLLLEQLQTGDWRYIARMVDPHVRSDVDIDGVHLKYHGREMYVKLFTDLGAKHMELKHIEVQGDKADIHSHVHFDGQEREIIIYSFKVNGRWRTKRLEVRTI”, the figure is 0.932. As for “DEDDELSHRAVLLYMEAVLTGNEDFMSRLVDPDVRHIVGDKEYIGREQFVEWFNEFVEKVKNVTVRLRHHDIQGDKVVVHTEYRVNGRTWHEHVIILKINGKWRLKELRIHIE”, the figure is 0.723; as for “DEDDELSRKAREFTSEVLRTGDEHSLLRMADPNTRNIVGNKEEHGWEHFEHFVREHWRRFGITNVDVKLEDLRVVDGRIEADMRVRVNGVERTWHFLIRKIDGKWRMESIEIR”, 0.416; as for “DEDDELYKRVFELIEHDNHTGNEKSHLELADPHARLLYDGKLVIGRELLLEWMRRLGIDVIRHMDFKRFRIQGDKIEMDVRVHGEVNGRHIDTDTHLIARKVNGRWLLEEIRIK”, 0.937. “DEDDEMWRELFEMYIRLARTGDEKADELLMDPDARIEIGDKRWHGREWTHFFLERVDHVHRVEFRVDDRRIQGDKVDVDGTFILDIHQGDKRIHTSIRSHLTVLKVDGKWRVHQMELR” registered a protease stability score of 1.73. Then “DEDDENIEKVLRTLFKLIHTGDWRTWLRFFDPHVKLEIGDKRLHGREVAEEFIRHRIEHLGVDRVEVRLHSFDKQGNKLHSDMRLYVGDKEFNVEMHMEKVNGKWIVRVFSID”, with 1.38; and “DEDDENNREMHDLSIRLFKTGDFDKIHKLMDPNAKLVIDIGDKHLHHHGREEASKRIFEIWHTLGVDHVHIKTHRHYGEKITIDMHLDINGQDTELIIVVLKINGRWLIQSVSMHFR”, with 1.35. As for “DEDDENVEQFIELFNEVMNTGDWRSLKRMIDPNARSRIGEKHLIGREMLEDFRHQADHVKIRDMKIERSHVINGRVLVDGIVHGEENFNGRRFLVNREVHLVVVKVNGRWFLRSIEFG”, the figure is 0.809; as for “DEDDERSRLFLEEMMRTLLTGDERKSHELADPRVRINVNGRHIHGRELWNRFVHEARIRITHHRIHSRDIYNGRIELDVELRGDIHIGDKDIHLDTRIILFVLKVNGRWHLEIMEIV”, 1.25.

In turn, “DEDDEVAIKFLEDIIQVWETGDEEEFSRLFDPDYRVHIGDKTLHGREIVVQEILEHLRRLGIERFEVRIHIRHAHFYNGRLDLNGELVIIINGKELRRHTHFVVLKVNGRWLLEREEVK” showed a protease stability score of 1.76.

On to “DEDDEVSKFVAHVLSRVFHTGDEENLQKLADPNVRLHIGDKHHIGRETFIRWLRHFLDRADHVDSDVHDVRSIDGRIWADTRLRLEINGQTIEREVIIVIHKINGRWILHRIEIR”, for which the protease stability score was 1.49. In the case of “DEDDHFWERLTEIILHILQTGNEEALHRMLDPHMRLDYNGRSFHGRELAQKALMRFWEDLGVDHIRVKDRRVQGDKVHLHGEIIIDGRLHETREHWLIVNGRIKHVRLEIR”, the protease stability score is 0.696.

On to “DEDDKDIEMVLRRLIEMVMTGDFEKAKRYADPDMQLDIGDKHFVGRETTITVLREWREHLGIDHVDIDHVHLHIIDGQVIVDLDITHRAENREIRVRFIHYVDKINGRWLVRRVDVKIH”, for which the protease stability score came out at 2.31.

In turn, “DEDDKEAEKALRDMVHSWVTGDEQKNQELADPHVRVIIGEFNFVGRDDLDKWLREIRIHNIEIKDIDVFDGKVELKGTLTIRIGDKEVRHEVDFYMVKINGRWHLHRIQVH” registered a protease stability score of 2.08. As for “DEDDKKAEDFANVIAHNLMTGDEEKHNKMIDPNVKIFINGQTVHGRDEFSKVMRRYKNLRIDWEVEELEIVNGQVRLKGHLHVEVNGVETRIDTHIVVTKVNGRWHMKEIYYH”, the figure is 1.62.

“DEDDKLLEKWVKDLREALRTGDEQTLLKLIDPNTRLEIGDKDFHGREVIVKLWKDLGMEIRDVKVHDIKRQGDFLELDIRIDVIINGVRENREHKIYALKVNGKWFVKTQIDE” showed a protease stability score of 2.13. Then “DEDDKRSEKYLQKLLTDTHTGDETAYRDLADPHVRIEFNGREWHGWKRAHEVFHRILEEMRLKDLRIEDVRKQGEKVRLHIRLHSTVDGKQVDLELEIILLKVNGQWYIKDVTLI”, with 0.886. As for “DEDDNDMEEMVRLFDRDLHTGNEDLLTELADPHARFDINGVELHGMHEFVTIWLEIRFILRDSRVEHIHIQGDKAHIKSRLHGEMIFNGRTTIVHSEVHIYFEKIDGRWMIHRHIVK”, the figure is 0.102; as for “DEDDQWSEMLAKKYLDRVLTGDEKRMKSLLDPNVRLSVNGVDMHGREVFVHWLRTVLNRVDHQELRLRHLHSQGDKAHVDTEVIENWDGVKIVKETELEFIFVNGRFHSVFHRER”, 0.267. With “DEDDRDMREFWELLFHYLLTGDWESLEKLIDPNARIRVNGKELHGMHYHIRQLTHEVKRFDHIDQRIHHSSVINGKIHLDIHLIINVDGQSFVIHIKMHVDKVDGRWLTRSVHIH”, the protease stability score is 1.09. As for “DEDDRHSERMSEYMIKVWMTGDEDAEKRLFDPHARIDVDGQEFIGREELHKISHEHLRKLGFDHFHVRHVELRLIDGKAHLSLDTEVRVGDFKFETSIYNNFEKVNGKWEIRELQVRIR”, the figure is 1.2.

Regarding “DEDDRIHEWSMRWLIQSLRTGDEDMLREYIDPHTRVHVNGKEEHGREAADKLAKRIDHLHHLIIRSEERQGDKIIMDIERDILIDGVRINTRVSLILLKVNGRWFMKSIHFL”, the protease stability score came to 0.826. As for “DEDDRLAEDLLRLIYHALQTGDEKHLEDFMDPHTQIIIEWNGVRDDTHGREEFSRKFHEQVRELRVHFHQNSIHVINGRAHNDGRLELNINGKIIKLKVILEIQVINGRIKEIRIIVR”, the figure is 1.95; as for “DEDDRVAEHALRLLFELLRTGDWEHILEMFDPNMRLDFDGKKWHGRESFRELFTRFLEEIRIHDVKVEDFKVFDGRVEVDTRIRGKYGDKETKLETKIVALKINGRWVLESSHYN”, 0.898. As for “DEDEDDAERVFEELRKLIITGDEEEWEKLADPHVRVIINGRELHGREEWARFMRHMRIKNEHVHLRRMRVVDGRIEIDGEMDFRVDFNGQERRTRTDTNLIVTKYDGRWKLHHIEIR”, the figure is 1.33. Then “DEDEDEIKRIVEIIEHALRTGDEDLMRRLFDPNARLDINGREVHGRESFIEILHHWLHELRFKSLRLHQVHIVDGKAHVDTRVTYHINGVEIHIETERNMLKVDGRWFITHEHHR”, with 0.025.

As to “DEDEDESRRFHEEFIKRILTGDEDEFVKLLDPDVRIEIGDKKSIGRERALERFHRMLTEIRVHHVELRERTIQGDKVFLNMEVDLEFNGRRDRTKFHMIIWKVDGQWTLSEMRVK”, the protease stability score turned out to be 2.48.

In the case of “DEDEDFIRHQIQLYIELFETGDWRSLKRLADPNARHHINGRDLHGMDLFRRHIEHMGIKIKHIKLRDMRVIGDKIELKVENNVEIDGRERSLEEEIIARKIDGRWILESSTIR”, the protease stability score was 0.39. “DEDEDHVRDMIEVFVRLMITGDEDTFKNLADPHVQFHFENVKLHGRHALLEWLRRLNREFKNIRVQILVHHVEVQGEKATVHSHIVVHVGDKTEHYDTELHIIVIDGRIKTVIIKRK” came in with a protease stability score of 1.5. Then “DEDEDIVRRHLHKLSKAWRTGDEETEKKLADPHARIQIGDKTDHGMEKMTKDWHEFLREMRVEIRIEDTRVQGDKVVNHIHIHSDIDGKEIILHSRIIVRKIDGRWHIESFVLI”, with 0.475. Then “DEDEDLLRRFTELWNHIYLTGDERMLHHLVDPHARLDVNGKEMHGRELLIKWMVKEIRDLGADHYRIDIKHYHFVDGRAHVQSTLEVDIGDKRITFYIRLILLKVNGRWVVHTIYYH”, with 1.55; and “DEDEDSFRRISKLLSHAFRTGDEDLVLELLDPHVRIVIGDKELHGWEQMDRWVRELRIRDHEIKRLDIQGDKAIVDTRLLTRVGDFHYLIDVRIIFTKVDGQWHVHQFEFH”, with 1.52; and “DEDEDTAHETWKILVHSLITGDERTMELLMDPNVQVHVGDKRHIGRERASRFHSEIRTEHVEMRTSEMQGNKVILHGRVVMRVNGKTLDHDFHLILDKIDGKWYITEIRFK”, with 0.517. Then “DEDEEAAEKMTELFRKSIKTGDEDLLTRLIDPHVRVDVNGRDIHGRESYFHELRNLGITNVEMQLKSRDVIGDKVHIDGTNRFNGRNHKVIIIVLKFNGRWVIEEIRIH”, with -0.045; and “DEDEEAARHFLEQWLEALLTGDEETLTKLLDPHTRLIVDGQELVGRELWLEFFKRIKNMKIHRTEIRHTTSIGDKITLNIHVDVEVDGKRRRFDVQYVILKVNGRWLLKQVNNH”, with 0.498. Sequence “DEDEEALDRFLEEWRRYFETGNWEMISNLVDPHARLEQGDKRFHGREEVAKYIHHLVRHMRINDFDIEHRDVQGDKIRIHLRLNGEIDGRRTEFEIHMIYIKVNGRWVVKSMVVN” returned a protease stability score of 0.882.

On to “DEDEEASKIFWEIWLHNVRTGDEHAINELVDPHVKMVYGDKTFHGMKMLERLYRELGVKHMEVRLDDERLINGVLTLDTRLIIRVDGRTIDIKTEIIALKVNGKWVVKSITYR”, for which the protease stability score amounted to 1.1. As for “DEDEEATRYALELMKKMHETGDEDSIKHLMDPHTKMDVNGVIFHGREAFHVWLNRFDVIRRFNIKHMKSVGDFLHIEGELDSEVNGKRIVTEVRIVSFKFNGRWHLSSTKIL”, the figure is 1.53. Then “DEDEEAVRHVVEEWFKFLLTGDEESFEKMFDPSARLIIGDKHYHGRDLLSHVLRELRFKEHRIHDMEIRVVNGKAEVIIHGHEVGIWNGVESESHSEIIIIIDKYDGRWHFHSVEIIFR”, with 2. Then “DEDEEDAHRAVQKLTEVINTGDWETFEKFADPNTRFEYGNFHIHGREVIRHFWLHEVEKFKNITIFIRHVQVINGRVESHGENRFNGKSYHFHIIFRKFNGRWHLERIHLE”, with 1.61; and “DEDEEDAQEILKRFVHANETGDWRILEELIDPNARYEQGDKHLVGREEVLRRMIELGIKHTYIHSFSVQGDKLRLDTSIQFENHRVKTHLILNKINGRWVIKSIHIH”, with 1.91. “DEDEEDARIAWEILVRVWKTGDEEELMKMADPNTRLEINGREFHGREHYLHMSRELRVERVDVRRLEVFDGKVHLEGESHMEVNGKRRTHKVVHIMRKIDGRWHIEYFIVH” returned a protease stability score of 1.31. As for “DEDEEDARRFLEILQHHMRTGDWDSLYRLLDPHVRLHIGDKHHHGREEIRKHLHHLRFKELENRHITVYDGRMHVHGRIQGKFDGRDDKYESEIVVLKVDGQWLIEEIHVK”, the figure is 2.06; as for “DEDEEDIRKAVKDFSENFQTGDEDRFKELADPNDRMHVNGREVHGRENIVKSLREEWKRLGVDHIHFEVRRITVQGEKIIVFSFLRIDNENERHHEDVLIIMRKVDGRWMIRTIRVR”, 1.45; as for “DEDEEDKKWMSEHLENLIHTGDEENLLKLVDPHAKVLVDGRTRHGRETLETWLDRFLRELGVDRVESRITHFDRIDGKVHVIMSIHVNGVDFISHSISQKVNGRWVIRSLHYDER”, 0.587.
